The experiment concerns the target ClC-ec1 C85A/H234C labelled with Cy5 (WT-Cy5) (Escherichia coli) (UniProt P37019). As to the kind of experiment: single-molecule photobleaching of subunits captured into liposomes (TIRF); high-density proteoliposomes (χ = 7.5 × 10^-6 subunit/lipid) diluted 10X to 1000X by freeze/thaw fusion with empty 2:1 POPE/POPG vesicles, incubated at room temperature, time course after freeze/thaw.

We go through one substance from article PMC5010387.

With “ClC-ec1 C85A/H234C labelled with Cy5 (WT-Cy5) (from UniProt P37019 1-473) (natural protein)”, the mid-point of the convergence of the 1000X diluted sample to the reconstituted probabilities came out at 13 days.
